Experimental data from patent US20100028924A1, “Method Of Diagnosing Pon1-Hdl Associated Lipid Disorders” (Rappaport Family Institute Research in the Medical Sciences, priority 2006, published 2010).

Columns and labels:
[1] = tested on: apoA-I rHDL; assay: Inactivation kinetics of human PON1 192 isozymes on rHDL-apoA-I (NTA/β-mercaptoethanol); format: biochemical; conditions: 50-fold molar excess rHDL-apoA-I; NTA and β-mercaptoethanol each 5 mM, 25° C.
Procedure: (§1) FIGS. 5A-B are graphs showing the inactivation and catalytic stimulation of the human PON1 192R/Q isozymes. FIG. 5A is a line graph showing the inactivation kinetics of human PON1-192R and -192Q in the presence of rHDL-apoA-I. The delipidated isozymes (0.2 μM) were incubated with a 50-fold molar excess of rHDL-apoA-I in activity buffer, and subjected to inactivation by NTA and β-mercaptoethanol (each at 5 mM) at 25° C. Residual activity determined as above (FIG. 1) and data were fitted to a double-exponential function. FIG. 5B is a bar graph showing stimulation of the enzymatic activity of human PON1-192R and -192Q by rHDL-apoA-I. The delipidated isozymes were incubated with a 50-fold molar excess of rHDL-apoA-I, and enzymatic activity was determined with various substrates (at 1 mM for all the substrates, except TBBL at 0.25 mM). The activity is presented in relation to the initial activity of the delipidated enzymes (percentage of stimulation). Each bar represents the mean and S.D. of at least two independent measurements;
Human PON1-192R and Q isozymes purified from pooled blood samples [Gan, K. N., et al., Drug Metab Dispos, 1991. 19(1): p. 100-6] were kindly provided by Dr. Dragomir Draganov (University of Michigan, Ann Arbour), and stored in presence of 0.1% tergitol and 20% glycerol. Prior to assay, these samples were briefly delipidated [Gaidukov, L. and D. S. Tawfik, Biochemistry, 2005. 44(35): p. 11843-54] and dialyzed against activity buffer to remove the tergitol and glycerol that interfere with HDL binding. Dialyzed samples (0.2 μM) were incubated with rHDL (10 μM). Stability assays were performed at 25° C., in activity buffer supplemented with nitrilotriacetic acid (NTA) and β-mercaptoethanol, both at 5 mM. Data analysis was performed as described above for rePON1s. Stimulation of enzymatic activities was measured with various substrates at 1 mM concentration, except for TBBL (0.25 mM).
The progress of inactivation of human PON1 isozymes anchored on rHDL-apoA-I is illustrated in FIG. 5A. Inactivation of both isozymes followed a two-phase kinetics with similar inactivation rates, but different partitioning between the HDL-bound and unbound phases, as detailed in Table 4 hereinbelow. Amplitudes (A) and kinetic rates of inactivation (k^inactiv) were derived by fitting the data to a double-exponential curve.

[2] = tested on: rHDL-apoA-I; assay: Stimulation of enzymatic activity of human PON1 192 isozymes by rHDL-apoA-I; format: biochemical; conditions: all the lactones tested; rHDL/PON1 ratio of 50
Procedure: as §1, with “Each bar represents the mean and S.D. of at least two independent measurements;” left out
Human PON1-192R and Q isozymes purified from pooled blood samples [Gan, K. N., et al., Drug Metab Dispos, 1991. […] Stimulation of enzymatic activities was measured with various substrates at 1 mM concentration, except for TBBL (0.25 mM).
HDL-mediated stimulation of the enzymatic activity of human PON1 isozymes was determined by incubating PON1 with the highest rHDL-apoA-I concentration (corresponding to the rHDL/PON1 ratio of 50) (FIG. 5B). […]

[3] = tested on: apoA-I rHDL; assay: Inactivation kinetics of rePON1 192 isozymes bound to rHDL-apoA-I (EDTA/β-mercaptoethanol, residual phenyl acetate hydrolysis); format: biochemical; conditions: apoA-I rHDL, 50-fold molar excess; EDTA and β-mercaptoethanol, 37° C.
Procedure: (§2) FIG. 1 is a graph showing the inactivation kinetics of the wild-type rePON1-192K (SEQ ID NO:2), -192R (SEQ ID NO:4) and -192Q (SEQ ID NO:6) isozymes, bound to rHDL-apoA-I, or in buffer. Delipidated enzymes were incubated with a 50-fold excess of rHDL-apoA-I, or in activity buffer, and subjected to inactivation in the presence of EDTA (5 mM) and β-mercaptoethanol (10 mM) at 37° C. Residual activity at various time points was determined by initial rates of phenyl acetate hydrolysis (2 mM) and plotted as percent of the activity at time zero. Data were fitted to a single exponential for wild-type rePON1-192K on rHDL-apoA-I, and to double-exponentials for the remaining samples. The inactivation rate constants and amplitudes were derived from this fit;
(§3) Inactivation rates of rePON1s were measured as described [Gaidukov, L. and D. S. Tawfik, Biochemistry, 2005. 44(35): p. 11843-54]. Briefly, rePON1 samples were delipidated using Bio-Beads SM-2 (BioRad) and incubated in buffer, or with 50-fold molar excess of rHDL-apoA-I. EDTA (10 mM) and β-mercaptoethanol (20 mM) were added, and samples were incubated at 37° C. Residual activity at different time points was determined with 2 mM phenyl acetate, and inactivation rates were fitted to either mono- or double-exponentials [Gaidukov, L. and D. S. Tawfik, Biochemistry, 2005. 44(35): p. 11843-54].
(§4) The resultant inactivation profiles of wt rePON1 (SEQ ID NO: 2), rePON1-192Q (SEQ ID NO: 6) and rePON1-192R (SEQ ID NO: 4), were fitted to exponential curves as illustrated in FIG. 1.

[4] = Inactivation kinetics of rePON1 192 isozymes in activity buffer; format: biochemical; conditions: EDTA and β-mercaptoethanol, 37° C.
Procedure: as §2, §3, §4

[5] = tested on: apoA-I rHDL; assay: Surface plasmon resonance binding of Δ20-rePON1 192 isozymes to immobilized rHDL-apoA-I; conditions: relative to the Q isozyme
Procedure: FIGS. 2A-C are sensorgrams for the binding of wt Δ20-rePON1-192K—SEQ ID NO:8 (FIG. 2A), Δ20-rePON1-192R—SEQ ID NO:10 (FIG. 2B) and Δ20-rePON1-192Q—SEQ ID NO:12 (FIG. 2C) isozymes to rHDL-apoA-I. Biotinylated rHDL-apoA-I particles were immobilized onto the streptavidin surface (SA chip), and a series of PON1 concentrations were injected over the immobilized and blank surfaces to obtain the net binding response. Binding was performed at 25° C. Association and dissociation phases were fitted to a single exponential, from which kinetic rate constants were derived. PON1 concentrations in all the sensorgrams are (from bottom to top) 25, 40, 60, 80, 100, 150 and 200 nM;
Surface plasmon resonance (SPR) measurements: rHDL-apoA-I particles containing 0.7% of N-biotinyl-dipalmitoylphosphatidylethanolamine (N-biotynyl-DPPE; Avanti Polar Lipids) were prepared and purified as described [Gaidukov, L. and D. S. Tawfik, Biochemistry, 2005. 44(35): p. 11843-54]. SPR was performed on BIAcore 3000 (Uppsala, Sweden) as described [Gaidukov, L. and D. S. Tawfik, Biochemistry, 2005. 44(35): p. 11843-54]. Briefly, the biotinylated rHDL particles were adsorbed on streptavidin (SA5) chip, and Δ20-rePON1 isozymes were injected over the immobilized and blank surfaces to obtain the net binding response. Binding rate constants were obtained by fitting of association and dissociation phases to single exponentials as described [Gaidukov, L. and D. S. Tawfik, Biochemistry, 2005. 44(35): p. 11843-54].
The above results were further supported by affinity measurements using surface plasmon resonance. It was previously shown that HDL affinity of the intact rePON1 is very high (sub-nanomolar) and could not be determined accurately using surface plasmon resonance [Gaidukov, L., and Tawfik, D. S. (2005)Biochemistry 44, 11843-11854]. In contrast, binding affinity of the truncated variant lacking the first 20 amino acids of the hydrophobic N-terminus (Δ20-rePON1) could be amply determined. Therefore, the truncated variants of PON1 192 isozymes were prepared and their HDL binding affinities measured. Typical binding sensorgrams between Δ20-rePON1 isozymes and the immobilized HDL particles are portrayed in FIGS. 2A-C, and the derived rate and affinity constants are summarized in Table 2 herein below.

[6] = tested on: apoA-I rHDL; assay: Stimulation of enzymatic activity of rePON1 192 isozymes by rHDL-apoA-I; format: biochemical; conditions: for Vmax (%) activation factor: relative to delipidated enzyme (100%)
Description: The activity is presented in relation to the initial activity of the delipidated enzymes (percentage of stimulation). Data were fitted to the Langmuir saturation curve, from which the activation factor (Vmax) and the apparent affinity (Kapp) were derived;
Stimulated activity is presented as the percentage of the initial activity of the delipidated enzymes (corresponds to 100%). Data were fitted to the Langmuir saturation curve, from which the activation factor (Vmax) and the apparent affinity (Kapp) were derived;
Delipidated rePONs at 0.2 μM were incubated with a range of rHDL concentrations (0.1-10 μM) for 3 hrs at 37° C. Enzymatic activity was determined in activity buffer (50 mM Tris pH 8.0, 1 mM CaCl2) with substrates at 1 mM concentrations as described [Gaidukov, L. and D. S. Tawfik, Biochemistry, 2005. 44(35): p. 11843-54]. 5-(thiobutyl)-butyrolactone (TBBL) was applied at 0.25 mM, and product formation was monitored spectrophotometrically at 412 nm using 5,5′-dithio-bis-2-nitrobenzoic acid (DTNB) as described [Khersonsky, O. and D. S. Tawfik, Chembiochem, 2006. 7(1): p. 49-53].
Stimulation of the enzymatic activity was examined by incubating rePON1 isozymes with a range of rHDL concentrations (at the HDL/PON ratio of 0.5-50), and measuring the catalytic activity with various substrates as detailed hereinabove. FIGS. 3A-B illustrate the enzymatic activity of the rePON1 isozymes with δ-nonanoic lactone as substrate (FIG. 3A) and thiobutyl butiryl lactone (TBBL) as substrate (FIG. 3B). FIGS. 4A-D illustrate the enzymatic activity of the rePON1 isozymes with γ-dodecanoic lactone as substrate (FIG. 4A), δ-valerolactone as substrate (FIG. 4B), phenyl acetate as substrate (FIG. 4C) and paraoxon as substrate (FIG. 4D). Data were fitted to the Langmuir saturation curve to give the activation factor Vmax (in percent relative to the delipidated PON1) and the apparent affinity Kapp.

[7] = biological target: apoA-I rHDL; conditions: previously shown; could not be determined accurately by SPR; cited from earlier work
[8] = substrate γ-dodecanoic lactone 1 mM
[9] = substrate δ-nonanoic lactone 1 mM

B1: human PON1-192R: human PON1 192R isozyme purified from pooled blood samples (protein)
chain: AKLIALTLLGMGLALFRNHQSSYQTRLNALREVQPVELPNCNLVKGIETGSEDLEILPNGLAFISSGLKYPGIKSFNPNSPGKILLMDLNEEDPTVLELGITGSKFDVSSFNPHGISTFTDEDNAMYLLVVNHPDAKSTVELFKFQEEEKSLLHLKTIRHKLLPNLNDIVAVGPEHFYGTNDHYFLDPYLRSWEMYLGLAWSYVVYYSPSEVRVVAEGFDFANGINISPDGKYVYIAELLAHKIHVYEKHANWTLTPLKSLDFNTLVDNISVDPETGDLWVGCHPNGMKIFFYDSENPPASEVLRIQNILTEEPKVTQVYAENGTVLQGSTVASVYKGKLLIGTVFHKALYCEL
[1]
  A2(%) (slow phase, HDL-bound fraction): 87%
  k1^inactiv (first, fast phase): 0.4 h⁻¹
  k2^inactiv (second, slow phase): 0.01 h⁻¹
[2]
  fold higher activation level than 192Q: about 2 fold

B2: wt rePON1-192K: recombinant wild-type PON1 variant G3C9 with C-terminal His8-tag, lysine at position 192, close homologue of rabbit PON1 (protein)
chain: MAKLTALTLLGLGLALFDGQKSSFQTRFNVHREVTPVELPNCNLVKGVDNGSEDLEILPNGLAFISSGLKYPGIMSFDPDKSGKILLMDLNEEDPVVLELGITGNTLDISSFNPHGISTFTDEDNTVYLLVVNHPDSSSTVEVFKFQEEEKSLLHLKTIRHKLLPSVNDIVAVGPEHFYATNDHYFADPYLKSWEMHLGLAWSFVTYYSPNDVRVVAEGFDFANGINISPDGKYVYIAELLAHKIHVYEKHANWTLTPLKSLDFDTLVDNISVDPVTGDLWVGCHPNGMRIFYYDPKNPPGSEVLRIQDILSEEPKVTVVYAENGTVLQGSTVAAVYKGKLLIGTVFHKALYCEL
modifications: C-terminal His8 tag; WT rePON1-192K
notes: recombinant wild-type PON1 variant G3C9 with C-terminal His8-tag, lysine at position 192, close homologue of rabbit PON1
[3]
  A2 (%) (amplitude of second, slow inactivation phase = HDL-bound fraction): 100%
  k2^inactiv (second, slow phase): 0.01 h⁻¹
[4]
  k1^inactiv (first, fast phase): 4.5 h⁻¹
  k2^inactiv (second, slow phase): 0.2 h⁻¹
[5]
  fold higher HDL binding affinity than the Q isozyme: 3 fold
[6]; substrate TBBL 0.25 mM
  Kapp (apparent affinity for HDL stimulation): 0.5 ± 0.1 µM
  Vmax (%) activation factor: 791 ± 10%
[6]; substrate paraoxon 1 mM
  Kapp (apparent affinity for HDL stimulation): 0.6 ± 0.1 µM
  Vmax (%) activation factor: 222 ± 2%
[6]; substrate phenyl acetate 1 mM
  Kapp (apparent affinity for HDL stimulation): 0.5 ± 0.1 µM
  Vmax (%) activation factor: 425 ± 4%
[6]; [8]
  Kapp (apparent affinity for HDL stimulation): 1.2 ± 0.1 µM
  Vmax (%) activation factor: 1830 ± 22%
[6]; [9]
  Kapp (apparent affinity for HDL stimulation): 1.3 ± 0.1 µM
  Vmax (%) activation factor: 1580 ± 19%
[6]; substrate δ-valerolactone 1 mM
  Kapp (apparent affinity for HDL stimulation): 1.3 ± 0.1 µM
  Vmax (%) activation factor: 1724 ± 23%
[7]
  HDL affinity of the intact rePON1: sub-nanomolar
